Assays:
Assay in all cases: anti-FLAG co-IP LC-MS, exp 3, +IFNg +Dox
[1] = target: 40S ribosomal protein S14 (Homo sapiens) (UniProt P62263)
[2] = target: 40S ribosomal protein S3a (Homo sapiens) (UniProt P61247)
[3] = target: 40S ribosomal protein S6 (Homo sapiens) (UniProt P62753)
[4] = target: 4F2 cell-surface antigen heavy chain (Homo sapiens) (UniProt P08195)
[5] = target: 60 kDa heat shock protein, mitochondrial (Homo sapiens) (UniProt P10809)
[6] = target: 60S acidic ribosomal protein P0 (Homo sapiens) (UniProt P05388)
[7] = target: 60S ribosomal protein L18a (Homo sapiens) (UniProt Q02543)
[8] = target: 60S ribosomal protein L29 (Homo sapiens) (UniProt P47914)
[9] = target: 60S ribosomal protein L7a (Homo sapiens) (UniProt P62424)
[10] = target: ADP/ATP translocase 2 (Homo sapiens) (UniProt P05141)
[11] = target: Antigen peptide transporter 1 (Homo sapiens) (UniProt Q03518)
Caprin-1 (Homo sapiens) = Caprin-1 (Homo sapiens) (UniProt Q14444)
[12] = target: Caveolae-associated protein 1 (Homo sapiens) (UniProt Q6NZI2)
[13] = target: Dolichyl-diphosphooligosaccharide--protein glycosyltransferase subunit 1 (Homo sapiens) (UniProt P04843)
[14] = target: Elongation factor 1-gamma (Homo sapiens) (UniProt P26641)
Filamin-A (Homo sapiens) = Filamin-A (Homo sapiens) (UniProt P21333)
[15] = target: Heat shock cognate 71 kDa protein (Homo sapiens) (UniProt P11142)
[16] = target: Heterogeneous nuclear ribonucleoprotein H (Homo sapiens) (UniProt G8JLB6)
[17] = target: Importin subunit beta-1 (Homo sapiens) (UniProt Q14974)
[18] = target: Myosin regulatory light chain 12A (Homo sapiens) (UniProt J3QRS3)
[19] = target: Nucleosome assembly protein 1-like 1 (Homo sapiens) (UniProt P55209)
[20] = target: Plasminogen activator inhibitor 1 (Homo sapiens) (UniProt P05121)
Plectin (Homo sapiens) = Plectin (Homo sapiens) (UniProt Q15149)
Chain of Plectin (Homo sapiens) (Q15149 whole entry): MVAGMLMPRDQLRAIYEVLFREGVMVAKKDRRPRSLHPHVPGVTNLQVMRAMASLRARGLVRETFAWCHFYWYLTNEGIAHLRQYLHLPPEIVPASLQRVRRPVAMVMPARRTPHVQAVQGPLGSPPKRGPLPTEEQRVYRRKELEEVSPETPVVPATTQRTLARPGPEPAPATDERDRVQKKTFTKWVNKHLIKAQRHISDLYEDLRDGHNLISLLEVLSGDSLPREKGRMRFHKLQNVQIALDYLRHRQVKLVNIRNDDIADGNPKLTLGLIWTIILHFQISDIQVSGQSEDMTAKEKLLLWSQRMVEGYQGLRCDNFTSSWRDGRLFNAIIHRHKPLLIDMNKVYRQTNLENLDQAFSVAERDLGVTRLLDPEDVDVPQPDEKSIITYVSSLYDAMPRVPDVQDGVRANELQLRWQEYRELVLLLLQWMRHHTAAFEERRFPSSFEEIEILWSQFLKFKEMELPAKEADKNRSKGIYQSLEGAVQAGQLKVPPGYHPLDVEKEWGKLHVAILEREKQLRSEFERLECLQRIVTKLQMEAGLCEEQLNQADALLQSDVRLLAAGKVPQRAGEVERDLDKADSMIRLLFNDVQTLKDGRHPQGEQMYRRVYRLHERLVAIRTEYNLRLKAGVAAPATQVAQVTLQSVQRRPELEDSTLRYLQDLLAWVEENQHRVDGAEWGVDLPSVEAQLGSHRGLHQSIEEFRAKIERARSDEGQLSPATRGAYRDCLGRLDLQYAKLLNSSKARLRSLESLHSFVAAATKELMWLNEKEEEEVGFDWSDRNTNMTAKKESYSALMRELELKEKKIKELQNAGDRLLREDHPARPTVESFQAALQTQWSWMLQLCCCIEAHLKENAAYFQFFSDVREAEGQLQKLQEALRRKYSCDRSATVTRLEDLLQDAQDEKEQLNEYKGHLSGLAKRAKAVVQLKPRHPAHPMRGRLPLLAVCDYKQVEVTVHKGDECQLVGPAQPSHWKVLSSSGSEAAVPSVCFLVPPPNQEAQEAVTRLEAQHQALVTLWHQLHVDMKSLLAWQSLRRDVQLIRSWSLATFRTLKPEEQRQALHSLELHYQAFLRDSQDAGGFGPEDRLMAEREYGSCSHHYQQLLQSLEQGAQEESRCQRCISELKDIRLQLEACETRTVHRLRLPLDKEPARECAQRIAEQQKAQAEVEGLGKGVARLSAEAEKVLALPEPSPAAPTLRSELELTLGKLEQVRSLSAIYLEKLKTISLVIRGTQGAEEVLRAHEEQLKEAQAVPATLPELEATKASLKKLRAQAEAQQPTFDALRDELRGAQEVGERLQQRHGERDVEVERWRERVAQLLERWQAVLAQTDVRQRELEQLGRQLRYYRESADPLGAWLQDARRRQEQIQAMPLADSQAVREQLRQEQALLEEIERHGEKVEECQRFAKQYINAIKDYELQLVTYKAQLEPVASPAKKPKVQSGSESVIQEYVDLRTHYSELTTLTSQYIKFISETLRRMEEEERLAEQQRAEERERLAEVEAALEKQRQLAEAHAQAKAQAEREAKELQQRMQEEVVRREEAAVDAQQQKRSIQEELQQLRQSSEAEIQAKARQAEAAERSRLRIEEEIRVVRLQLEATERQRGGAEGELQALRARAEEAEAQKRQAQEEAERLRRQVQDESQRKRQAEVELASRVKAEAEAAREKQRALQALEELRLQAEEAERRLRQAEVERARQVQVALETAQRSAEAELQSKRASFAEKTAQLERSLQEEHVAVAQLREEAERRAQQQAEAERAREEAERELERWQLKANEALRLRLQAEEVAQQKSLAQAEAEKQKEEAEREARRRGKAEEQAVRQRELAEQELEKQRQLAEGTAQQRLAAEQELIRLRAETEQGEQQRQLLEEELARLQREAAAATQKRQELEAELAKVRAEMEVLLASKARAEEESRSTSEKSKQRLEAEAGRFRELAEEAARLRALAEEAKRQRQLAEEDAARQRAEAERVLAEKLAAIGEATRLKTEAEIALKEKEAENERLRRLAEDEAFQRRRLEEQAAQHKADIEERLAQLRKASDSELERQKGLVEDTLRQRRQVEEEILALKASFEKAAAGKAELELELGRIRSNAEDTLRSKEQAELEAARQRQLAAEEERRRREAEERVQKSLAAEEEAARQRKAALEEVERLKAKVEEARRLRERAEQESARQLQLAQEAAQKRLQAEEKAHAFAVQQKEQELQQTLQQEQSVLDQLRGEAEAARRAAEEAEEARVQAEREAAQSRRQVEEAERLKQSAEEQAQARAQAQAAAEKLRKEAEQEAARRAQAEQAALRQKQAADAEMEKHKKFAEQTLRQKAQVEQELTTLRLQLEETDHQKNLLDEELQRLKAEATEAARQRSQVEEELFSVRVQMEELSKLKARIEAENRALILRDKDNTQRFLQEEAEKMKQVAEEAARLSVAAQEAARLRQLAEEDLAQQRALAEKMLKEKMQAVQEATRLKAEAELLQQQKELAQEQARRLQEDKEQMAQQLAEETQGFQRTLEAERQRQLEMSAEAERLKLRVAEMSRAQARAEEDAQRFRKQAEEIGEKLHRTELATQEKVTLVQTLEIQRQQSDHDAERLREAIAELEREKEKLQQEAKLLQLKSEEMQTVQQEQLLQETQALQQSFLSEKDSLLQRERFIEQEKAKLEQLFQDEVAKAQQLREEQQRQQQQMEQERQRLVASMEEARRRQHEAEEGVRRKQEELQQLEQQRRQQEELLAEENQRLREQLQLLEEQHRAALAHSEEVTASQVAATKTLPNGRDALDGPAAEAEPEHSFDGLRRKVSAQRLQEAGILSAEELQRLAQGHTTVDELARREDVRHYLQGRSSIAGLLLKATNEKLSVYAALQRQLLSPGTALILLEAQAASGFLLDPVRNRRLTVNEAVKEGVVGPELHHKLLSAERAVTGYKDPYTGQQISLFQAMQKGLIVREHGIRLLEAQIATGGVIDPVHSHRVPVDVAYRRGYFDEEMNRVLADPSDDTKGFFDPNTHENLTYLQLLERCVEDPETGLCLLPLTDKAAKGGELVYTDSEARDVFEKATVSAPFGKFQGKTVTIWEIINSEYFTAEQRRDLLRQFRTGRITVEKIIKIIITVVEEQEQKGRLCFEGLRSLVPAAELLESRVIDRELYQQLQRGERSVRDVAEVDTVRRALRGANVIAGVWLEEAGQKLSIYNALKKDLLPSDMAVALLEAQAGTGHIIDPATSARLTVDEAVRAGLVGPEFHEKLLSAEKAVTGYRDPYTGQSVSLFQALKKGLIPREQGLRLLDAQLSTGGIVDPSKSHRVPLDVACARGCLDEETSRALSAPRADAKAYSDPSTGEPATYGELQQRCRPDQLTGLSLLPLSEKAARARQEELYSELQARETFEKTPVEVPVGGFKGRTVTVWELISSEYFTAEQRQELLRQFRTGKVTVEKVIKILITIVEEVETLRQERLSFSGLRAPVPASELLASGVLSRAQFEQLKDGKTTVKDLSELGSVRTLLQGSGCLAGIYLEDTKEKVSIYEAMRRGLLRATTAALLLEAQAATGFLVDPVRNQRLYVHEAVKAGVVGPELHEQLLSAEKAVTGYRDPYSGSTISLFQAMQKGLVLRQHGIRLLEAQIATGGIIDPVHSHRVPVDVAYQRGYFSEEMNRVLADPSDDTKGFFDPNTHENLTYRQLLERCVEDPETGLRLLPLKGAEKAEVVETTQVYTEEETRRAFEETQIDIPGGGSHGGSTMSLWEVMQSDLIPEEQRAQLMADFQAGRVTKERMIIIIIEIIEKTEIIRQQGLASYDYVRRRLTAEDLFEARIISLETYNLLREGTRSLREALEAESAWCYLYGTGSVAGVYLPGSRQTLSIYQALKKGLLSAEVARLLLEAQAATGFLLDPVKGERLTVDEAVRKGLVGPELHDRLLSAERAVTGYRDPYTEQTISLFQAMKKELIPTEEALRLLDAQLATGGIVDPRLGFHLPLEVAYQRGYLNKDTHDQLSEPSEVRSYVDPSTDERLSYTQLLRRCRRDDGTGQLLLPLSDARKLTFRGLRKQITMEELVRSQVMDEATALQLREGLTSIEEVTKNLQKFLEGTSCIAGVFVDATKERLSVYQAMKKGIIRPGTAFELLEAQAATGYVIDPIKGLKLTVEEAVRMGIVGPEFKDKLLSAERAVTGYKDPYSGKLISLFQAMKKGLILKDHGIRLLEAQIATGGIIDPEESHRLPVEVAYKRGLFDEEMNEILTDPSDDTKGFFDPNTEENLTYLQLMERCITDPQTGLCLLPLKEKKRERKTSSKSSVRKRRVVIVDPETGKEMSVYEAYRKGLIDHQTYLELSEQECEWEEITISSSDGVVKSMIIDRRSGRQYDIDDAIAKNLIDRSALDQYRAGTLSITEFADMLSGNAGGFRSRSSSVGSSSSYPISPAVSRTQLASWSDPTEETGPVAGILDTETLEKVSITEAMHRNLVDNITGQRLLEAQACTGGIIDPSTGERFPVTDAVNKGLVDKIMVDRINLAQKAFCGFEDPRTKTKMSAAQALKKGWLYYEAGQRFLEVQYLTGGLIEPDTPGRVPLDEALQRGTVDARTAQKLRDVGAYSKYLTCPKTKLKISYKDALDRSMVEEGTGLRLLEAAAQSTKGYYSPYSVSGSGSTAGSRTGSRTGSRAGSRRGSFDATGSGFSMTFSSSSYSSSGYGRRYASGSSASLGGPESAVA

[21] = target: Probable ATP-dependent RNA helicase DDX6 (Homo sapiens) (UniProt P26196)
[22] = target: Probable ubiquitin carboxyl-terminal hydrolase FAF-X (Homo sapiens) (UniProt Q93008)
[23] = target: Prolyl 4-hydroxylase subunit alpha-1 (Homo sapiens) (UniProt P13674)
[24] = target: Protease serine 2 preproprotein (Homo sapiens) (UniProt A6XMV9)
[25] = target: Protein disulfide-isomerase A3 (Fragment) (Homo sapiens) (UniProt P30101)
[26] = target: Ras GTPase-activating protein-binding protein 1 (Homo sapiens) (UniProt Q13283)
[27] = target: Ras GTPase-activating protein-binding protein 2 (Homo sapiens) (UniProt Q9UN86)
Chain of Ras GTPase-activating protein-binding protein 2 (Homo sapiens) (Q9UN86 2-482 limits assumed): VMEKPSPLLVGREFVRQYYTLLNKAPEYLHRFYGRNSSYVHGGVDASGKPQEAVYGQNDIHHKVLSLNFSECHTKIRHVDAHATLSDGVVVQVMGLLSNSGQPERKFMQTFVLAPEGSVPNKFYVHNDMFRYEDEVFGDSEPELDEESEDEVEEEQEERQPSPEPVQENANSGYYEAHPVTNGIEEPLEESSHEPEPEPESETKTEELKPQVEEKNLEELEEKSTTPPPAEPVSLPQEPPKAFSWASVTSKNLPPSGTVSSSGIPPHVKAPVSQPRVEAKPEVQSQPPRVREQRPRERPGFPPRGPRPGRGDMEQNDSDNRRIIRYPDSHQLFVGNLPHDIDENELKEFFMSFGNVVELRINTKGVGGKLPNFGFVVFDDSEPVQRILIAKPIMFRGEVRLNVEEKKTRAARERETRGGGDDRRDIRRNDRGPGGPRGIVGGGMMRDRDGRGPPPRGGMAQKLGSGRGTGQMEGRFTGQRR

[28] = target: Reticulon-4 (Homo sapiens) (UniProt Q9NQC3)
[29] = target: Stress-70 protein, mitochondrial (Homo sapiens) (UniProt P38646)
[30] = target: Ubiquitin carboxyl-terminal hydrolase 7 (Homo sapiens) (UniProt Q93009)
[31] = target: WD repeat-containing protein 1 (Homo sapiens) (UniProt O75083)
[32] = target: X-ray repair cross-complementing protein 5 (Homo sapiens) (UniProt P13010)
[33] = target: Y-box-binding protein 3 (Homo sapiens) (UniProt P16989)

Question: How did the PSMs [1] turn out when i3XFLAG-NLS-CTDaa154-424 was run?
Answer: 3 PSMs

Question: And the PSMs [2]?
Answer: 5 PSMs

Question: What about the PSMs [3] of the same substance?
Answer: 3 PSMs

Question: What about the PSMs [4] of the same substance?
Answer: 2 PSMs

Question: What about the PSMs [5] of the same substance?
Answer: 2 PSMs

Question: What about the PSMs [6] of the same substance?
Answer: 5 PSMs

Question: And the PSMs [7]?
Answer: 2 PSMs

Question: What about the PSMs [8] of the same substance?
Answer: 2 PSMs

Question: And the PSMs [9]?
Answer: 5 PSMs

Question: What about the PSMs [10] of the same substance?
Answer: 3 PSMs

Question: What about the PSMs [11] of the same substance?
Answer: 3 PSMs

Question: And the PSMs (Caprin-1 (Homo sapiens))?
Answer: 5 PSMs

Question: What about the PSMs [12] of the same substance?
Answer: 3 PSMs

Question: What about the PSMs [13] of the same substance?
Answer: 14 PSMs

Question: And the PSMs [14]?
Answer: 6 PSMs

Question: What about the PSMs (Filamin-A (Homo sapiens)) of the same substance?
Answer: 12 PSMs

Question: What about the PSMs [15] of the same substance?
Answer: 54 PSMs

Question: What about the PSMs [16] of the same substance?
Answer: 7 PSMs

Question: What about the PSMs [17] of the same substance?
Answer: 5 PSMs

Question: And the PSMs [18]?
Answer: 3 PSMs

Question: What about the PSMs [19] of the same substance?
Answer: 5 PSMs

Question: What about the PSMs [20] of the same substance?
Answer: 3 PSMs

Question: And the PSMs (Plectin (Homo sapiens))?
Answer: 21 PSMs

Question: What about the PSMs [21] of the same substance?
Answer: 3 PSMs

Question: And the PSMs [22]?
Answer: 5 PSMs

Question: What about the PSMs [23] of the same substance?
Answer: 5 PSMs

Question: What about the PSMs [24] of the same substance?
Answer: 2 PSMs

Question: What about the PSMs [25] of the same substance?
Answer: 2 PSMs

Question: What about the PSMs [26] of the same substance?
Answer: 2 PSMs

Question: What about the PSMs [27] of the same substance?
Answer: 3 PSMs

Question: What about the PSMs [28] of the same substance?
Answer: 7 PSMs

Question: And the PSMs [29]?
Answer: 10 PSMs

Question: What about the PSMs [30] of the same substance?
Answer: 6 PSMs

Question: And the PSMs [31]?
Answer: 2 PSMs

Question: What about the PSMs [32] of the same substance?
Answer: 5 PSMs

Question: And the PSMs [33]?
Answer: 3 PSMs

Reference: patent US20250339531A1, “DUX4 POLYPEPTIDES AND NUCLEIC ACIDS FOR TREATING INFLAMMATORY AND AUTOIMMUNE CONDITIONS” (Fred Hutchinson Cancer Center, priority 2021, published 2025)
